From patent publication US20040234982A1 (published 2004) come the findings set out here.

For one data set, the target named is T1, T/EBP/NKX2.1 (TTF1) (UniProt P23441).
T1 sequence: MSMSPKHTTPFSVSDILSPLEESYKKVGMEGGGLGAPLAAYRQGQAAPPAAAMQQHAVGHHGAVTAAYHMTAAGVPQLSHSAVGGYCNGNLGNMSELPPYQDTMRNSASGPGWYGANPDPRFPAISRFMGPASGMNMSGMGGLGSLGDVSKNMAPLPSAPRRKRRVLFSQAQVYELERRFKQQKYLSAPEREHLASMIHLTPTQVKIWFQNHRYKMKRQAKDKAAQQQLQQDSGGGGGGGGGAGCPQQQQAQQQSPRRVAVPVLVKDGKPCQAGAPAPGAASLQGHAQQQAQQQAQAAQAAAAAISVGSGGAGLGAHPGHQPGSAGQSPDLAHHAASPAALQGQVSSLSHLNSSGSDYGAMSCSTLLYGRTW
Nature of the data set: cell_activity. The following applies: luciferase.

Data set [1] deals with unknown -112 site binding nuclear protein. Nature of the data set: EMSA. On the technique in general: Mobility shift assays separate free from complexed probe on a gel.
Data set [2] concerns the molecule itself. Nature of the data set: anti-c-myc immunoblot of COS-1 cell lysate and conditioned medium, non-reducing vs reducing SDS-PAGE; homodimer. On the procedure:
Three forms of cDNAs encoding type A, B and C proteins were amplified by PCR and inserted into EcoRI and XhoI site of pcDNA3.1/Myc-His(+) A vector (Invitrogen). Transient transfection into COS-1 cells was performed using Effectene transfection reagent (Qiagen). After 2 days, cells and conditioned media were collected, separated on 13% SDS-polyacrylamide gels under reducing and non-reducing conditions, and electrophoretically transferred to nitrocellulose membrane (Schleicher & Schuell). The filter was incubated in PBS containing 5% skim milk, and then for 1 h with 250-fold diluted c-myc 9E10 […] antibody (Santa Cruz Biotechnology, Santa Cruz, Calif.). The filter was washed in PBS containing 0.1% Tween 20, incubated with horseradish peroxidase (HRP)-conjugated anti-rabbit IgG (Amersham Pharmacia Biotech), and then washed with the same buffer. Protein bands were detected using ECL Western blotting detection reagent (Amersham Pharmacia Biotech).
The polypeptides of uteroglobin/CCSP family members form a homodimer or heterodimer (Mukherjee et al., Cell Mol Life Sci 55:771-787, 1999). […] In contrast, no band corresponding to polypeptide C was ever detected in either the cell lysate or the medium under any conditions examined, despite the effort to keep the procedures of transient expression and immunoblot analyses consistent for all three polypeptides. […]
(In general: Immunoblotting shows a protein as a band on a membrane.)

Consider pGL3-147 mouse UGRP1 promoter reporter, for which the activity (fold activation) with T/EBP/NKX2.1 (TTF1) (HeLa cells) came to 5. On to -112A oligonucleotide, for which the binding signal (fold affinity vs -112G) in data set [1] (binds at same mobility, about 2-fold lower affinity) is 0.5. Turning to -112G oligonucleotide, in data set [1] (competition with unlabeled oligonucleotides), the binding signal (fold affinity vs -112A) was found to be 2. In turn, pGL3-190 mouse UGRP1 promoter reporter had an activity (fold activation) with T/EBP/NKX2.1 (TTF1) (NCI-H441 cells) of 4.

B1: Mouse UGRP1 type A polypeptide tagged with a c-myc epitope at the carboxyl-terminus, expressed in COS-1 cells (other, not shown: small tags and cut ends)
chain: LLINRLPVVDKLPVPLDDIIPSFDPLKMLLKTLGISVEHLVTGLKKCVDELGPEASEAVKKLLEALSHLV
notes: Type A is 91 amino acids; The protein was found as a homodimer under non-reducing conditions; also called polypeptide A
For B1, the binding result in data set [2] is reported as “binds”.
